Here are results for two molecules from article PMC5869396 (Toxins, 2018).

The target of experiment [1] is T1, recombinant Shiga toxin-2a B subunit (rStx2aB), C-terminal 6xHis tag (Escherichia coli O157:H7 EDL933 …).
T1 construct: source: E. coli BL21 (pET22b), periplasmic extract, purified (IMAC, SEC); not shown: His6, C-terminal, kept
Put plainly: crystal structure. Conditions: both partners purified.

Experiment [2] concerns the target T2, Stx2a holotoxin (Stx2a A subunit with the Stx2a B pentamer) (Escherichia coli, Stx2a strain not …, UniProt P09385;P09386).
T2 construct: copies: 1 + 5
In words: pull-down. Conditions: one partner purified.

B1: Nb113 (expressed from pMECS, C-terminal HA and His6 tags) (VHH)
VHH: QVQLQESGGGLVQPGGSLRLSCAASGFTFSSYYMSWVRQAPGKGPEWVSGINTGGVGTRYADSVKGRFTISRDNAKNTLYLQMNSLKPEDTALYYCAIGEGGNRNYWGQGTQVTVSS
notes: source: E. coli WK6 (pMECS), periplasmic extract, purified (IMAC, SEC)
Take B1: the “stoichiometry N” value in experiment [1] worked out at 5 per pentamer.

B2: monovalent Nb113 (expressed from pHEN6c, His6 tag, without the HA tag) (VHH)
VHH: B1 VHH
notes: also called Nb113 monovalent; monomeric Nb113; source: E. coli WK6 (pHEN6c), purified (IMAC, SEC)
As for B2, in experiment [2], the binding result is reported as “binds”.

Usually stoichiometry N stands for a count of units in the complex or per binding partner.
